Measurements from the Immune Epitope Database (IEDB).

Legend:
[1] = target: HLA-A*03:01; experiment: IEDB peptide-MHC binding, cellular MHC/competitive/fluorescence; ≥ and ≤ were set here for values at or beyond the usual limits of such assays; conditions: source organism: Hepatitis B virus
[2] = target: HLA-A*11:01; experiment: as above; conditions: source organism: Hepatitis B virus
[3] = target: HLA-A*31:01; experiment: as above; conditions: source organism: Hepatitis B virus
[4] = target: HLA-A*68:01; experiment: as above; conditions: source organism: Hepatitis B virus
[5] = target: HLA-A*02:02; experiment: IEDB peptide-MHC binding, purified MHC/competitive/radioactivity; ≥ and ≤ were set here for values at or beyond the usual limits of such assays; conditions: source organism: Hepatitis B virus
[6] = target: HLA-A*02:03; experiment: as above; conditions: source organism: Hepatitis B virus
[7] = target: HLA-A*02:06; experiment: as above; conditions: source organism: Hepatitis B virus
[8] = target: HLA-A*68:02; experiment: IEDB peptide-MHC binding, cellular MHC/competitive/fluorescence; ≥ and ≤ were set here for values at or beyond the usual limits of such assays
[9] = target: HLA-A*02:01; experiment: IEDB peptide-MHC binding, purified MHC/competitive/radioactivity; ≥ and ≤ were set here for values at or beyond the usual limits of such assays; conditions: source organism: Hepatitis B virus
[10] = target: HLA-A*68:02; experiment: as above; conditions: source organism: Hepatitis B virus
[11] = target: HLA-A*02:01; experiment: IEDB peptide-MHC binding, cellular MHC/competitive/fluorescence; ≥ and ≤ were set here for values at or beyond the usual limits of such assays
[12] = target: HLA-A*02:02; experiment: as above
[13] = target: HLA-A*02:03; experiment: as above
[14] = target: HLA-A*02:06; experiment: as above
[15] = source organism: Hepatitis B virus
[16] = source organism: Influenza A virus
[17] = source organism: Vaccinia virus WR

| Sequence | IC50 [1] | IC50 [2] | IC50 [3] | IC50 [4] | IC50 [5] | IC50 [6] | IC50 [7] | IC50 [8, 15] | further results |
| --- | --- | --- | --- | --- | --- | --- | --- | --- | --- |
| FLLAQFTSAI | 11.2 µM | ≥ 70 µM | 16.1 µM | 23.6 µM | 3.6 nM | 0.00031 µM | 0.045 µM |  |  |
| FLCKQYLNL | ≥ 70 µM | ≥ 70 µM | 26.3 µM | ≥ 70 µM | 175 nM | 0.011 µM | 1.11 µM | ≥ 70 µM |  |
| PLLPIFFCL | ≥ 70 µM | ≥ 70 µM | 9.87 µM | 44.2 µM | 63 nM | 0.637 µM | 0.087 µM | 33.1 µM | IC50 [9]: 0.111 µM |
| FLPSDFFPSV | ≥ 70 µM |  | 20.1 µM | ≥ 70 µM |  |  |  |  | IC50 [10]: 0.028 µM |
| ILSPFLPLL |  |  |  | ≥ 70 µM | 0.076 nM | 0.00084 µM | 0.00093 µM |  | IC50 [9]: 0.0014 µM |
| SILSPFLPL |  |  |  | ≥ 70 µM |  |  |  |  |  |
| GLSRYVARV | 7.23 µM | ≥ 70 µM | 24.7 µM | ≥ 70 µM | 11 nM | 0.0015 µM | 1.17 µM | 8.86 µM | IC50 [9]: 0.154 µM |
| FLGPLLVLQA | 33.1 µM | 61.2 µM | 14.7 µM | ≥ 70 µM | 3690 nM | 0.16 µM | 1.37 µM | 30.3 µM |  |
| ALMPLYACI | ≥ 70 µM | ≥ 70 µM | 50.3 µM | ≥ 70 µM |  |  |  |  |  |
| SLYSILSPFL | 14.3 µM | ≥ 70 µM | 5.67 µM | 64 µM | 1 nM | 0.013 µM | 0.076 µM | 6.67 µM | IC50 [9]: 0.0082 µM |
| GMLPVCPLI | ≥ 70 µM | ≥ 70 µM |  | ≥ 70 µM |  |  |  |  |  |
| GLLGWSPQA | 14 µM | ≥ 70 µM | 9.14 µM | ≥ 70 µM | 51 nM |  | 1.05 µM | ≥ 70 µM |  |
| YMDDVVLGA | 69.4 µM | ≥ 70 µM | ≥ 70 µM | ≥ 70 µM |  | 1.29 µM | 3.71 µM | 50.1 µM |  |
| PAHKSQLV |  |  |  |  |  |  |  |  | IC50 [11, 16]: ≥ 70 µM; IC50 [12, 16]: ≥ 70 µM; IC50 [13, 16]: ≥ 70 µM; IC50 [14, 16]: ≥ 70 µM; IC50 [8, 16]: ≥ 70 µM |
| IAYERMCNIL |  |  |  |  |  |  |  |  | IC50 [11, 16]: ≥ 70 µM; IC50 [12, 16]: 24 µM; IC50 [13, 16]: 16.5 µM; IC50 [14, 16]: 7.91 µM; IC50 [8, 16]: 24.6 µM |
| PTIEDDKIVT |  |  |  |  |  |  |  |  | IC50 [11, 17]: ≥ 70 µM; IC50 [12, 17]: 13.8 µM; IC50 [13, 17]: 20.6 µM; IC50 [14, 17]: ≥ 70 µM; IC50 [8, 17]: ≥ 70 µM |
| YTLIYRQLT |  |  |  |  |  |  |  |  | IC50 [11, 17]: 28.5 µM; IC50 [12, 17]: 6.41 µM; IC50 [13, 17]: 9.42 µM; IC50 [14, 17]: 17.6 µM; IC50 [8, 17]: 7.86 µM |
| TVIKNNMI |  |  |  |  |  |  |  |  | IC50 [11, 16]: ≥ 70 µM; IC50 [12, 16]: 36 µM; IC50 [13, 16]: ≥ 70 µM; IC50 [14, 16]: 67 µM; IC50 [8, 16]: ≥ 70 µM |
| LLLVVQALR |  |  |  |  |  |  |  |  | IC50 [11, 16]: 10.2 µM; IC50 [12, 16]: 10.7 µM; IC50 [13, 16]: 34.6 µM; IC50 [14, 16]: 8.59 µM; IC50 [8, 16]: 60.4 µM |
| YLEKANKI |  |  |  |  |  |  |  |  | IC50 [11, 16]: 12.3 µM; IC50 [12, 16]: 8.22 µM; IC50 [13, 16]: 38.3 µM; IC50 [14, 16]: ≥ 70 µM; IC50 [8, 16]: ≥ 70 µM |
| NLSWLSLDV | 9.22 µM | ≥ 70 µM | 15.4 µM | ≥ 70 µM | 69 nM | 0.05 µM | 2.74 µM | 28.4 µM |  |
| PLPSLEYGA |  |  |  |  |  |  |  |  | IC50 [11, 17]: 14.7 µM; IC50 [12, 17]: 11.4 µM; IC50 [13, 17]: 18.9 µM; IC50 [14, 17]: 42.5 µM; IC50 [8, 17]: 30.9 µM |
| FLLAQFTSA |  |  | 25.7 µM | ≥ 70 µM |  |  | 0.0087 µM | 9.89 µM | IC50 [9]: 0.098 µM |
